Test results from PMC5880400, “FIN219/JAR1 and cryptochrome1 antagonize each other to modulate photomorphogenesis under blue light in Arabidopsis” (PLoS Genetics, 2018).

Target: T1, CBP-CRY1 (cryptochrome1 full-length, recombinant) (Arabidopsis thaliana, UniProt Q43125 1-681)
T1 construct: cryptochrome1 (CRY1), Arabidopsis thaliana, full-length; also called CRY1/pCal-n; CRY1 full-length; source: E. coli BL21 (DE3) codon plus, purified (electroelution), acetone-precipitated and resuspended in PBS
T1 sequence (Q43125 whole entry): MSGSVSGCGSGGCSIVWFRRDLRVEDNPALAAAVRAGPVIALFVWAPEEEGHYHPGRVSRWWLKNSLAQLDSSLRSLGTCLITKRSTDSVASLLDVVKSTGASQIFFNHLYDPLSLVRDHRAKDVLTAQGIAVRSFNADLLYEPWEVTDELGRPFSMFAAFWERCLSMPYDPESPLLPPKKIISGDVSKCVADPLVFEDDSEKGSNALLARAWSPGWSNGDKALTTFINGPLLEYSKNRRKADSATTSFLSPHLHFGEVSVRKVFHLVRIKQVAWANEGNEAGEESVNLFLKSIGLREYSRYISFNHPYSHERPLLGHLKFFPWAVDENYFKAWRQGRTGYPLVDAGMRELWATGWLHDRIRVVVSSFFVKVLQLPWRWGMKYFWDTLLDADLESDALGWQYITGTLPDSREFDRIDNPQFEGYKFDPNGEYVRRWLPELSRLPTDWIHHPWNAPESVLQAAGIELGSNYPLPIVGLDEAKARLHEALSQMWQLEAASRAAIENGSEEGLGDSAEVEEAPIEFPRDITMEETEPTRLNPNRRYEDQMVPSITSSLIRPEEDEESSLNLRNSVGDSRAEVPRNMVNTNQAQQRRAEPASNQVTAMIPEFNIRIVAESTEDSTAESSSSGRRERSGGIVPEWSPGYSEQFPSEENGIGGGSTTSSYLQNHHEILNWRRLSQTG
Assay: pull-down; 5 ug purified recombinant protein mixed in 500 ul interaction buffer (50 mM Tris-HCl pH 7.5, 10 mM MgCl2, 100 mM NaCl, 1 mM PMSF, 0.04% NP-40), 4°C 1 h; GST fusions held on GSH sepharose; blot probed with antibodies against the CBP-tag
Conditions: both partners purified

B1: GST-FIN219 (FIN219/JAR1 full-length, recombinant) (natural protein, Arabidopsis thaliana, UniProt Q9SKE2 1-575, looked up)
chain: MLEKVETFDMNRVIDEFDEMTRNAHQVQKQTLKEILLKNQSAIYLQNCGLNGNATDPEEAFKSMVPLVTDVELEPYIKRMVDGDTSPILTGHPVPAISLSSGTSQGRPKFIPFTDELMENTLQLFRTAFAFRNRDFPIDDNGKALQFIFSSKQYISTGGVPVGTATTNVYRNPNFKAGMKSITSPSCSPDEVIFSPDVHQALYCHLLSGILFRDQVQYVFAVFAHGLVHAFRTFEQVWEEIVTDIKDGVLSNRITVPSVRTAMSKLLTPNPELAETIRTKCMSLSNWYGLIPALFPNAKYVYGIMTGSMEPYVPKLRHYAGDLPLVSHDYGSSEGWIAANVTPRLSPEEATFAVIPNLGYFEFLPVSETGEGEEKPVGLTQVKIGEEYEVVITNYAGLYRYRLGDVVKVIGFYNNTPQLKFICRRNLILSINIDKNTERDLQLSVESAAKRLSEEKIEVIDFSSYIDVSTDPGHYAIFWEISGETNEDVLQDCCNCLDRAFIDAGYVSSRKCKTIGALELRVVAKGTFRKIQEHFLGLGSSAGQFKMPRCVKPSNAKVLQILCENVVSSYFSTAF
notes: FIN219/JAR1, Arabidopsis thaliana, full-length; also called GST-FIN219 full-length; FIN219FL/pGEX-4T-1; source: E. coli BL21 (DE3) codon plus, purified (GSH sepharose), acetone-precipitated and resuspended in PBS
  binding result: binds
